This note sets out measurements from US20230212291A1 (BEIGENE, published 2023).

The experiment concerns the target T1, full-length human OX40 expressed on HuT78 cells (HuT78/OX40) (human, UniProt P43489 29-277).
T1 sequence: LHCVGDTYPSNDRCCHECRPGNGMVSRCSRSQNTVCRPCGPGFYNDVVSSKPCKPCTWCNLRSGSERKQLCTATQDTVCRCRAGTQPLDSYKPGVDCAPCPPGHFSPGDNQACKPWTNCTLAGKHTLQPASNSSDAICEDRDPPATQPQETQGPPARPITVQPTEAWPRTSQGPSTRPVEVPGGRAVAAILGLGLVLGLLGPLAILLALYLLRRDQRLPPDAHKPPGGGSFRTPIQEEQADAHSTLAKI
The experiment is described as follows: cell-based or functional assay.

B1: 445-3 (antibody, human IgG1, V domains shown)
VH: QVQLVQSGAEVKKPGSSVKVSCKASGYKFTSYIIHWVRQAPGQGLEWMGYINPYNEGTRYNQKFQGRVTLTADKSTSTAYMELSSLRSEDTAVYYCARGYYGSSYAMDYWGQGTTVTVSS
VL: DIQMTQSPSSLSASVGDRVTITCRASQGISNYLNWYQQKPDGAIKLLIYDASTLYSGVPSRFSGSGSGTDFTLTISSLQPEDFATYYCQQYSKLPYTFGGGTKVEIK
For B1, the “ADCC (LDH release), NK92MI/CD16V effector cells, HuT78/OX40 target cells (EC50)” value was 27 ng/mL and the “IL-2 production by HuT78/OX40 cells co-cultured with HEK293/OS8Low-FcγRI cells (EC50)” value is 0.06 ng/mL.
